Test results as given in patent EP2877200B1.

Experiments:
[1] = molecular target: human Type 1 IGF receptor (human) (UniProt P08069); assay: competitive displacement of 125I-Tyr31 IGF-I from IGF-1R
[2] = molecular target: human Type 1 IGF receptor (human) (UniProt P08069); assay: competitive displacement of 125I-Tyr31 IGF-I from IGF-1R (different receptor preparation from Tables 1A-1C)

Row | Kd [1] [nM] | Kd [2] [nM] | Substance
1 | 41.8 | – | α-D-mannopyranoside-O^β-Thr^B30-[His^A4, His^A8, Gly^A21]-insulin (ligand)
2 | 8.39 | 3.86 | [Lys^B28, Pro^B29]-insulin (ligand; other documents disagree on this pair)
